We go through three molecules from paper PMC12105186 (Cell Communication and Signaling : CCS, 2025).

Data set [1] deals with N-terminally 6×His-tagged AB region of hRXRγ (human). In words: MST.
Data set [2] concerns the molecule itself. In words: AUC.
Data set [3] concerns the molecule itself. In words: SEC-MALS.

Where “and” joins values, the source holds several entries; their conditions need not be identical. Equal values may be shown once.

In the case of “deletion mutant of human RXRγ lacking the AB region (ΔABhRXRγ) (from UniProt P48443 128-463) (domain or fragment)”, the equilibrium dissociation constant (Kd) in data set [1] was found to be 11.1 µM.

B1: full-length human retinoid X receptor γ (hRXRγ) (receptor, UniProt P48443 1-463, looked up)
chain: MYGNYSHFMKFPAGYGGSPGHTGSTSMSPSAALSTGKPMDSHPSYTDTPVSAPRTLSAVGTPLNALGSPYRVITSAMGPPSGALAAPPGINLVAPPSSQLNVVNSVSSSEDIKPLPGLPGIGNMNYPSTSPGSLVKHICAICGDRSSGKHYGVYSCEGCKGFFKRTIRKDLIYTCRDNKDCLIDKRQRNRCQYCRYQKCLVMGMKREAVQEERQRSRERAESEAECATSGHEDMPVERILEAELAVEPKTESYGDMNMENSTNDPVTNICHAADKQLFTLVEWAKRIPHFSDLTLEDQVILLRAGWNELLIASFSHRSVSVQDGILLATGLHVHRSSAHSAGVGSIFDRVLTELVSKMKDMQMDKSELGCLRAIVLFNPDAKGLSNPSEVETLREKVYATLEAYTKQKYPEQPGRFAKLLLRLPALRSIGLKCLEHLFFFKLIGDTPIDTFLMEMLETPLQIT
B1: the “stoichiometry N” value in data set [2] stood at 5.

B2: deletion mutant of human RXRγ lacking the AB region (ΔABhRXRγ) (domain or fragment, UniProt P48443 128-463, looked up)
chain: STSPGSLVKHICAICGDRSSGKHYGVYSCEGCKGFFKRTIRKDLIYTCRDNKDCLIDKRQRNRCQYCRYQKCLVMGMKREAVQEERQRSRERAESEAECATSGHEDMPVERILEAELAVEPKTESYGDMNMENSTNDPVTNICHAADKQLFTLVEWAKRIPHFSDLTLEDQVILLRAGWNELLIASFSHRSVSVQDGILLATGLHVHRSSAHSAGVGSIFDRVLTELVSKMKDMQMDKSELGCLRAIVLFNPDAKGLSNPSEVETLREKVYATLEAYTKQKYPEQPGRFAKLLLRLPALRSIGLKCLEHLFFFKLIGDTPIDTFLMEMLETPLQIT
In the case of B2, the “stoichiometry N” value in data set [2] was 2 and 6; in data set [3], 4.
